In patent US20160024487A1, “THROMBIN SENSITIVE COAGULATION FACTOR X MOLECULES” (NOVO NORDISK A/S, priority 2013, published 2016):
Several values for one entry are separate records, joined by “and”; a condition that tells them apart may be missing. Equal entries are not always repeated. Where no end group is shown, it is not given here. The star is where a group is joined. Dnp = O=[N+]([O-])c1ccc(*)c([N+](=O)[O-])c1; 2Abz = Nc1ccccc1C(=O)O

Experiments:
[1] = target: T1, Human plasma purified Factor Xa (Homo sapiens, UniProt P00742); assay: Factor Xa cleavage kinetics of quenched fluorescence (QF) peptide substrates, progress curve; format: biochemical; conditions: for Specificity Ratio (FIIa/FXa): FIIa kcat/KM divided by FXa kcat/KM, natural sequence QF substrates; for specificity ratio: X4/X3 positional scanning QF library (Table 4), FIIa/FXa
T1 construct: purchased Molecular Innovations, Inc, Novi Mich., USA; host or cells: human plasma
T1 sequence (P00742 41-179 limits assumed): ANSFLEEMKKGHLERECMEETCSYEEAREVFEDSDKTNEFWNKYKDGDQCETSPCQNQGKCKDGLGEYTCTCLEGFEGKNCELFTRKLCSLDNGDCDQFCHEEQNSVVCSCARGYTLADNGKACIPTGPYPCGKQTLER
T1 sequence (P00742 235-488 limits assumed): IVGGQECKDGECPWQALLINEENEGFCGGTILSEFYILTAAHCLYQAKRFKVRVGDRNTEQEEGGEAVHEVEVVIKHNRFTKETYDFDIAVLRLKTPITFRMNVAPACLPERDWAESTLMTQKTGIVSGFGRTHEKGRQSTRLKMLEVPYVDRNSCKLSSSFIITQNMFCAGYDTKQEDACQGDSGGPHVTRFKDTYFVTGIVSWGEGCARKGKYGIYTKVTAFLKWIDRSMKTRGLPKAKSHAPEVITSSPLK

[2] = target: Human plasma purified α-thrombin (Homo sapiens, UniProt P00734); assay: Thrombin cleavage kinetics of quenched fluorescence (QF) peptide substrates, progress curve; format: biochemical; conditions: for Fold-Improved (FpA): kcat/KM relative to FpA substrate Lys(Dnp)-DFLAEGGGVRIVGG-Lys(Abz); for Fold-Improved (PAR-1): kcat/KM relative to PAR 1 control substrate Lys(Dnp)-ATNATLDPRIVGG-Lys(Abz)

In the case of “Factor V (2): QF substrate Lys(Dnp)-X10-X1-IVGG-Lys(Abz), X10-X1 = NRLAAALGIR (K(Dnp)NRLAAALGIRIVGGK(2Abz))”, the “Specificity Ratio (FIIa/FXa)” value [1] is reported as 302, the “Fold-Improved (FpA)” value [2] is reported as 1.8 and the “Fold-Improved (PAR-1)” value [2] is reported as 0.3.

“PAR1 (3): QF substrate with X6-X1 = ATLDPR, prime side IVGG (KATLDPRIVGGK)” was tested, and the “Specificity Ratio (FIIa/FXa)” value [1] was 4.

“Thrombin (3): QF substrate Lys(Dnp)-X10-X1-IVGG-Lys(Abz), X10-X1 = EDSDRAIEGR (K(Dnp)EDSDRAIEGRIVGGK(2Abz))” was tested, and the “Specificity Ratio (FIIa/FXa)” value [1] was 141, the “Fold-Improved (FpA)” value [2] was 0.000 and the “Fold-Improved (PAR-1)” value [2] was 0.000.

For “Osteopontin: QF substrate Lys(Dnp)-X10-X1-IVGG-Lys(Abz), X10-X1 = RGDSVVYGLR (K(Dnp)RGDSVVYGLRIVGGK(Abz))”, the “Specificity Ratio (FIIa/FXa)” value [1] was 239, the “Fold-Improved (FpA)” value [2] was 1.0 and the “Fold-Improved (PAR-1)” value [2] was 0.1.

“Factor XI: QF substrate Lys(Dnp)-X10-X1-IVGG-Lys(Abz), X10-X1 = NESTTKIKPR (K(Dnp)NESTTKIKPRIVGGK(2Abz))” was tested, and the “Specificity Ratio (FIIa/FXa)” value [1] was 559, the “Fold-Improved (FpA)” value [2] was 49.2 and the “Fold-Improved (PAR-1)” value [2] was 7.1.

In the case of “Factor VIII (1): QF substrate Lys(Dnp)-X10-X1-IVGG-Lys(Abz), X10-X1 = LSKNNAIEPR (K(Dnp)LSKNNAIEPRIVGGK(2Abz))”, the “Fold-Improved (FpA)” value [2] is reported as 32.3 and the “Fold-Improved (PAR-1)” value [2] is reported as 4.7.

“PAR 1: QF substrate Lys(Dnp)-X10-X1-IVGG-Lys(Abz), X10-X1 = KATNATLDPR (Table 3 r16) (K(Dnp)ATNATLDPRIVGGK(2Abz); also: template implies Lys(Dnp) before X10 K, letters have one K, taken as Lys(Dnp))” was tested, and the “Fold-Improved (FpA)” value [2] was 9.7 and 8.9 and 8.2 and the “Fold-Improved (PAR-1)” value [2] was 1.4 and 1.3 and 1.2.

For “Lys(Dnp)-DFLAEGGGVRIVGG-Lys(Abz) (K(Dnp)DFLAEGGGVRIVGGK(2Abz)) [FpA, reference compound]”, the “Specificity Ratio (FIIa/FXa)” value [1] was 121.

With “Factor XIII: QF substrate Lys(Dnp)-X10-X1-IVGG-Lys(Abz), X10-X1 = TVELQGVVPR (K(Dnp)TVELQGVVPRIVGGK(Abz))” the “Specificity Ratio (FIIa/FXa)” value [1] was 114, the “Fold-Improved (FpA)” value [2] was 28.7 and the “Fold-Improved (PAR-1)” value [2] was 4.2.

With “PAR1 (2): QF substrate with X8-X1 = TNATLDPR, prime side IVGG (KTNATLDPRIVGGK)” the “Specificity Ratio (FIIa/FXa)” value [1] was 4.

For “TAFI: QF substrate Lys(Dnp)-X10-X1-IVGG-Lys(Abz), X10-X1 = QISNDTVSPR (K(Dnp)QISNDTVSPRIVGGK(Abz))”, the “Specificity Ratio (FIIa/FXa)” value [1] was 16, the “Fold-Improved (FpA)” value [2] was 13.1 and the “Fold-Improved (PAR-1)” value [2] was 1.9.

“WTPR: QF library substrate Lys(Dnp)-ATNATX4X3PRIVGG-Lys(Abz) with X4-X1 = WTPR (K(Dnp)ATNATWTPRIVGGK(2Abz))” gave a specificity ratio [1] of ~300 fold.

For “Factor VIII (2): QF substrate Lys(Dnp)-X10-X1-IVGG-Lys(Abz), X10-X1 = YDEDENQSPR (K(Dnp)YDEDENQSPRIVGGK(2Abz))”, the “Specificity Ratio (FIIa/FXa)” value [1] was 13, the “Fold-Improved (FpA)” value [2] was 2.3 and the “Fold-Improved (PAR-1)” value [2] was 0.3.

For “Thrombin (2): QF substrate Lys(Dnp)-X10-X1-IVGG-Lys(Abz), X10-X1 = SEYQTFFNPR (K(Dnp)SEYQTFFNPRIVGGK(Abz))”, the “Specificity Ratio (FIIa/FXa)” value [1] was 0, the “Fold-Improved (FpA)” value [2] was 48.7 and the “Fold-Improved (PAR-1)” value [2] was 7.1.

In the case of “Thrombin (1): QF substrate Lys(Dnp)-X10-X1-IVGG-Lys(Abz), X10-X1 = DQVTVAMTPR (K(Dnp)DQVTVAMTPRIVGGK(2Abz))”, the “Specificity Ratio (FIIa/FXa)” value [1] is reported as 64, the “Fold-Improved (FpA)” value [2] is reported as 73.6 and the “Fold-Improved (PAR-1)” value [2] is reported as 10.7.

In the case of “FpB: QF substrate Lys(Dnp)-X10-X1-IVGG-Lys(Abz), X10-X1 = DNEEGFFSAR (K(Dnp)DNEEGFFSARIVGGK(2Abz))”, the “Specificity Ratio (FIIa/FXa)” value [1] is reported as 1, the “Fold-Improved (FpA)” value [2] is reported as 0.7 and the “Fold-Improved (PAR-1)” value [2] is reported as 0.1.

For “Factor V (1): QF substrate Lys(Dnp)-X10-X1-IVGG-Lys(Abz), X10-X1 = HTHHAPLSPR (K(Dnp)HTHHAPLSPRIVGGK(Abz))”, the “Specificity Ratio (FIIa/FXa)” value [1] was 2, the “Fold-Improved (FpA)” value [2] was 77.2 and the “Fold-Improved (PAR-1)” value [2] was 11.2.

With “MKPR: QF library substrate Lys(Dnp)-ATNATX4X3PRIVGG-Lys(Abz) with X4-X1 = MKPR (K(Dnp)ATNATMKPRIVGGK(2Abz))” the specificity ratio [1] was ~300 fold.

“PAR 3: QF substrate Lys(Dnp)-X10-X1-IVGG-Lys(Abz), X10-X1 = NLAKPTLPIK (K(Dnp)NLAKPTLPIKIVGGK(2Abz))” was tested, and the “Specificity Ratio (FIIa/FXa)” value [1] was 5, the “Fold-Improved (FpA)” value [2] was 0.04 and the “Fold-Improved (PAR-1)” value [2] was 0.01.

With “Factor V (3): QF substrate Lys(Dnp)-X10-X1-IVGG-Lys(Abz), X10-X1 = PDNIAAWYLR (K(Dnp)PDNIAAWYLRIVGGK(2Abz))” the “Specificity Ratio (FIIa/FXa)” value [1] was 7, the “Fold-Improved (FpA)” value [2] was 0.2 and the “Fold-Improved (PAR-1)” value [2] was 0.03.

Substance “MTPR: QF library substrate Lys(Dnp)-ATNATX4X3PRIVGG-Lys(Abz) with X4-X1 = MTPR (K(Dnp)ATNATMTPRIVGGK(2Abz))” has a specificity ratio [1] of ~300 fold.

“Protein C: QF substrate Lys(Dnp)-X10-X1-IVGG-Lys(Abz), X10-X1 = EDQEDQVDPR (K(Dnp)EDQEDQVDPRIVGGK(2Abz))” was tested, and the “Specificity Ratio (FIIa/FXa)” value [1] was 133, the “Fold-Improved (FpA)” value [2] was 4.4 and the “Fold-Improved (PAR-1)” value [2] was 0.6.

For “FpA_P: QF substrate Lys(Dnp)-X10-X1-IVGG-Lys(Abz), X10-X1 = DFLAEGGGPR; FpA with proline at X2 (K(Dnp)DFLAEGGGPRIVGGK(2Abz))”, the “Specificity Ratio (FIIa/FXa)” value [1] was 6914, the “Fold-Improved (FpA)” value [2] was 97.8 and the “Fold-Improved (PAR-1)” value [2] was 14.2.

With “Antithrombin: QF substrate Lys(Dnp)-X10-X1-IVGG-Lys(Abz), X10-X1 = ASTAVVIAGR (K(Dnp)ASTAVVIAGRIVGGK(2Abz))” the “Specificity Ratio (FIIa/FXa)” value [1] was 0, the “Fold-Improved (FpA)” value [2] was 0.001 and the “Fold-Improved (PAR-1)” value [2] was 0.000.

“PAR 4: QF substrate Lys(Dnp)-X10-X1-IVGG-Lys(Abz), X10-X1 = STPSILPAPR (K(Dnp)STPSILPAPRIVGGK(2Abz))” was tested, and the “Specificity Ratio (FIIa/FXa)” value [1] was 40, the “Fold-Improved (FpA)” value [2] was 23.1 and the “Fold-Improved (PAR-1)” value [2] was 3.4.
